Laboratory results published in the DeepSol protein solubility set.

Test: soluble on expression in E. coli; label from the status in PepcDB or PDB records

Sequence	soluble on expression in E. coli
MNRHLIHRRDILDTLVADLQAQQPDHIAVTGDLVNIALVNEFAPARQWLESVGPADRVSLVPGNHDAYVRSTAHRFAETFPDYISGDDATPGFPYLRRREAIAIIGVSSAVPTAPLRATGWLGAPQRAALEALLQSLAGERVFKVLLIHHPLQSRSRHKRLTDAADLIALLQRHPVDLVLHGHDHVHATVRIDTPFGAIPVVGVPSASAMNDRHRPSAAYNLFKISEGNLEHHHHHH	soluble
MGSDKIHHHHHHMDHQYTTLERNRYFEVLGGLNVENRGDNKVAMLSELDMTSAQALRTSVDRQTGIKPSYTAIVAKAVSIALREHPYANRMAVERLFWKRILQLHDVHMTIAVERDRPGIEQAVFAGTIRDTDKLDVAAITKELQSLAQSTEETNERWRLLKRMVETLPPALARRLISIPRWLPDQWIKHRGGSVMISSPAKYGVDMMVANWPWPIGYSFGLVKDRVIAVEGAAQVRPTMVLTMSFDRRLMGGAPAARFFRTVCEHIEHAERDMALPVNIPS	not soluble
MRDPFMEALGLKVLHLAPGEAVVAGEVRADHLNLHGTAHGGFLYALADSAFALASNTRGPAVALSCRMDYFRPLGAGARVEARAVEVNLSRRTATYRVEVVSEGKLVALFTGTVFRLGGDGDDVPAGTGNLAPREA	soluble
MPNPPAKEDTWAFGPIGSPFPDNPVKALGQQNMYVALWYKNGRPMHGRAWNNGGVIECSFPYNKSELTGVKDLGGQIQVLQYKGNHLSLGYWYNWIKYSDRFDKMDKGAEMLRCGDSFPILWSERPGGALLGYADNKTEIARFSHDGKVDEVSGSALANMLIIARELKGGPPYCECEECKSEPPKPIVRVTLNEWADFRCGDPWPTVGTPVRALGRSLDTLPGENPDQYVALWYQSGEPVMGRIWNDGGKIAACFGWGGHEYRQKIGSIQILYELPEAIRGFDYDWKPFPEAAQFGAKEWIPVHVDHHKGNISPAVLIVDGKEILGKADIRNERATIGYGGTEKVLVGPAVHSCMVLCRKAKPGCTID	soluble
MGSDKIHHHHHHVNELSADVVILGGGLVGMTLAIGLAKAGISSHVVDNSDPAAQTAEGFDGRASAISTASWNLYANLGMADELAPKGCPIEAIAVTDAMKPGRIDFKPGEGDGSLGRMYANRDLRIAMYAAAAREEAITFHTNANVIHRERGEHGVSVTLADGRILKGRLLVGAEGRRSPTRDEAGFTPARWDYGHRAIIAGLTHEKPHGNVAWEVFYPAGPFALLPLLDDEDGSHRSALVWTVAEKDASAVLAMPEPMFLDEVSKRMHEIFGEIRLASPRSSYPLNFHHTARIVEQRLALVGDAAHGMHPIAGQGLNVGLRDVAALVEVLADGVRLGLDVGDAQLLARYERWRAADTFMVATATDVLTRLFGLPGRVPSAIRRLGMAGVQRMGPLKRWFMDEARGMSGDLPKLLRAA	not soluble
GSGGIEGRHMVELLKLVRSSGCAAKVGPGDLQEILKGFNIYTDESTLVSIGDDAGVYEHNGIIWVYTVDIITPVVNDPYLWGAISTANALSDVYAMGGIPVNALAISCFNNCELDIEIFREVIRGALDKLREAKTVLLGGHTIDDKEPKFGLSVAGICPEGKYITQSGAQVGQLLILTKPIGTGILIKGLKEGILKEEDINEAIENMLALNDKARNLMLSLDATACTDVTGFGLLGHAWNICKNSNIGARIFFEKVPYYQLSENLVKKKIYPKGAIENLNFVKNYLKSNLDNWKLILLSDPVTSGGLLFTINKEKLEKIDETAKELEVNYWIIGETIAENVLEVL	soluble
HYHGIAANPADIQHEFCTSAQSDLNETQWLLAAKSLGLKAKVVRQPIKRLAMATLPALVWCDDGNHFILAKTDGEGEHAQFLIQDLVTNKSAVLSFAEFSNRYSGKLILVASRASVLGSLAKFDFTWFIPAVIK	not soluble
MAHHHHHHMNCSSTLACHAVVSAPSTASLITSCWTPQQHCYRQLMKSLRAAYFHDRSKLFWSRHRVLVEFYKYSEEANEEAVKQLVAIGLEVAAFIDHHMRTDVERIVKHNETMMALPVAQAKKFRSDYLLAEKQHDSWCKQKIKNIMKRRPPPPYPFF	not soluble
METACERLHVAQETQMQLIEKSSDKLQDHILYWTAVRTENTLLYAARKKGVTVLGHCRVPHSVVCQERAKQAIEMQLSLQELSKTEFGDEPWSLLDTSWDRYMSEPKRCFKKGARVVEVEFDGNASNTNWYTVYSNLYMRTEDGWQLAKAGADGTGLYYCTMAGAGRIYYSAFGDEAARFSTTGHYSVRDQDRVYAGVSSTSSDFRDRP	soluble
MGATLTVAVAACTVSTPTSAIPVTHIKCLRINGQIKCVKPISPNTTPAAEHIEHVRKNPRRKAAMDRAAARIADKIALKAGGETFVSLRMKKGFTQSELATAAGLPQPYLSRIENSKQSLQDKTVQKLANALGVSPLEVRAAFERRYEYMEQA	soluble
GQSLRSFQKQNEDNDKRQQILRSINVNVSSSEAETKYNELIKEAFLVNENGEKVEGDAFATDVVKAATEHQYPVFVANVDGQPKYIMALHGAGLWGPLWGYISVDSDKNTIYGADFSHQGETPGLGAEISKPVFSNEFKGKKIFMSGEFKSVAVVKPGKSVAGQDYVDGISGGTITSKGVDEMLFNSLSGYVKFLTSQN	soluble
MAGDPNSMMIARTLSIFIGTLLLATCSIPTRLNIPTIAITDHPKYKLLLILIDGLRADALEHGQAPQLARLASDGVHARWMTPSYPALTLPNAYTLITGLRPDHHGIVHNTMEDPLLGAFESERQEAISNGRWWGGEPIWVSAEHAGIRSATFLWPGSEASIAGTRPSRWYAYNKHISADTQITQALRWLNERGPDAPRLVILRFEQVNTAGDNFGPDSPQYAAAVNMIDSAIGRLIDSLRQHGKLTDTDVIVVSDQGIAPIPGDHAVPLERIVQLSDVHVVSDGQVLGITPLPGHESKVEAMVLGAHATYDCWRKQALPTHWHYGTHPRIPNIVCQMHEGWNALSAAQITKRNPLQMGGSSGFDPMLPSMRAVFLANGPSFMPNLLLNPINNVDIYPLLARLLGIAMAPNDGNPRALLQALRTSNTANGYTYSKRNALHLEHHHHHH	not soluble
MLAKVLKKRGAVLRGDFVLSSGRRSSVYIDMRRLLGDESSYSVALDLLLEVGGQDLARSSAVIGVATGGLPWAAMLALRLSKPLGYVRPERKGHGTLSQVEGDPPKGRVVVVDDVATTGTSIAKSIEVLRSNGYTVGTALVLVDRGEGAGELLARMGVRLVSVATLKTILEKLGWGGE	soluble
MATSKLQALWNHPAGPKTIHFWAPTFKWGISIANIADFQKPPENISYLQQIAVTCTGMIWCRCSTIITPKNWNLFSVNVAMAATGIYQLTRKIKYDYVSEAEAAVEIEG	not soluble
MISPELVKEALKKKKVRSEEAFGLEYLRFNDDYKDIPRGTAIFKDFIIWGYPHIGRIFLLETGLREQFEAPFWVEEKVDGYNTRIFKYGDNYYALSRGGFICPFTTDRLPDLIDLRILDENPDLVICAEVAGPENPYIEESPPYVKEDVQLFVFDFMKKNEQGFLSQEEKMELIEKYNLPHVEILGRFTASEEGIKKIKEILKRFNEEGREGVVFKEDSERNKRAKYITSYANLMDIKTNAKNMLQLPPEYYTNRILRLVLFMYEEGLKTTEHLYEELGRAFIDGLFQAIEQFEKEHKVYKTFTCKFRKKENAIALLELLSKTSKHIQVKERRLEKEGDYWRLEFDKVFLNMTGLLGHLLSGGIVYD	soluble
MSEFLNENPDILEENQLPTRKEDSTKDLLLGGFSNEATLERRSLLLKIDHSLKSQVLQDIEVLDKLLSIRIPPELTSDEDSLPAESEDESVAGGGKEEEEPDLIDAQEIYDLIAHISDPEHPLSLGQLSVVNLEDIDVHDSGNQNEMAEVVIKITPTITHCSLATLIGLGIRVRLERSLPPRFRITILLKKGTHDSENQVNKQLNDKERVAAACENEQLLGVVSKMLVTCK	soluble
MLCRNTARTGCKFFRLYHSNPIEHVKPIHIKPLTYGKESPQYKVLSLALQKFVPEHGFSERSIVESLNELGYPSSMISSIGAPNSPSFFHSSTAVMELIKFQLVDKRYRLTEGINPDVTPQYKLPSLEHLLLKRLEMDKPIGGHLSELMSQLAIPSAFLFETAIPELHRLSDDMIYFSNEKDHHDSAWYAKRLAVSSTYIGSKLFMAQDKSHNYKETFTFAKDKLHRVMRLGEYYNNTEEFAWYTLMSTVNLIKSQLVRG	not soluble
MSLSTQTVTIKSLGAQGDGIAHCPDGPVYVPFALPGETVAIAKVKDQGTVMSITEASADRRDPVCRHFGPEGINGTCGGCSLQHLADQPYHAFKRELVVSALRSKGLTPPVDDLVICRPGERRRAVFAARKTEKGLLLGFSQANSHHIVAIEECPVTSPGIVSRFDAIRAIGLSMVANAEPFRITVLETLSGLDISVEGIKSVNDKQRRTLTETVLAMRGIARVSLSGEILIEPQKPIIEFGGIPVSPPAGGFTQATKQAEDAMAELMLAHVGKSKRIADLFCGSGTFALRLARIGRVHAVEAEDKALKALDFAARNTQGLKPVSVEKRDLFRRPLMTSELKNYDAVVFDPPRAGAEVQCKELARSTVKKIVAVSCNPLTLARDLAILTEGGYRVTRVTPVDQFLWSPHVEAVAVLEKEGHHHHHH	soluble
QIVLTQSPAIMSASPGEKVTMTCSASSSVSYMHWYQQKSGTSPKIWIYESSKLASGVPVRFSGSGSGTSYSLTISSMEAEDVATYYCQQWSSHPHPLTFGAGTKLELKRADAAPTVSIFPPSSEQLTSGGASVVCFLNNFYPKDINVKWKIDGSERQNGVLNSWTDQDSKDSTYSMSSTLTLTKDEYERHNSYTCEATHKTSTSPIVKSFNRNEC	soluble
MAHHHHHHMGGCVVSVMAKRNAAQVMPDPRAEALERRRAQCGGNFVQRVPGTESEHASAIYRIAGVTAEQHEAILAAAAARPTFYTTLMRHCAERTDQRVLGYRPVKCVTKEPAPSKSSGSTSEPAKKERLMSITHFDEVVHVTYSEMEERIFHFGAGLAALGVTANGNVSIYLDTCVEWLIGIYGIWSCSAVAATVYANLGEAALAHALHETESQAILCGSVNVANVLKLMKNGVMPQVPIIHVGALPASLDTHGVQVVSFKQVEMIGAAHLEGGAAKGTGPLNDDDLALIMYTSGTTGDPKGVMHTHRTLAAGLHTLEPRVIDLLGQPRPDDVYLSYLPMAHIMEFTITNLFIFRGAFIGFGTPRTLTDTTARPHGDLLTFNPSMLAGVPRIFDTLKKAVEAKLPPVGTLKRQVFDHAYQSRLAAMKEGKDTPFWNEKVFAAPRAVLGSRLRIMLSGGGPLSAATHEFVNVVFGRVVIGYGLTETICVGAIQIPGDTETNVTGLMEPGQEIKLLDIDEYKHTDTPEPRGEMLSRGPYLFKGYYKQPELTREVLDEDGWFHTGDVGSFTADGKMRIVGRVKALAKNCLGEYIALEALEAVYSSNELLQPNGVCVLVHPDKPYITALALTDEARATSFAAKHGIEGTYPALLKDQRFQQAAAISMADTARASNRASFECVKRVRVIDDEWTPENEILTAAQKLKRRVIDAQYAQTIAELFADD	not soluble
MGSDKIHHHHHHMLGKTANGLFWMSRYLERAENTARLIETGQRIALTRLGSAEDEWVSILQSAGSLGGFREAYDTHGQDAAVDWMLRGKDNPSSIMSSIASARQNARLVRAAITGEVWEAINATYMTASDLLARKVSARDLPDVLASIRQHTALMRGMVHGTMLRNDIYDFLRIGTFLERADNTARILDVKYYVLLPSVSAVGSSIDNVQWESILRSVSARGGFRMEYGADGGPQEIAHFLIFDKRMPRSLAFCVSKIKDNLRYLNAGQPTPSPSQELVTHLENTYLSHGIEEVFDYGLHEFIEKMLELLLELAHQIQLDYRFYE	not soluble
